Data taken from patent EP4671269A1.
Several values for one entry are separate records, joined by “and”; a condition that tells them apart may be missing. Identical values can stand only once.

How the values were obtained:
Details in all cases: remark: other sources report otherwise
TGF-β2, P61812 [1] = target: T1, TGF-β2, P61812; experiment: indirect ELISA; […] diluted 1:9
T1 chain: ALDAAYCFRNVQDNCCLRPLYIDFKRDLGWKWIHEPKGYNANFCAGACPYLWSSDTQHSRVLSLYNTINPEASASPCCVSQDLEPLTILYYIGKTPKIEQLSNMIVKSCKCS

TGF-β2, P61812 [2] = target: T1, TGF-β2, P61812; experiment: indirect ELISA; 0 (blank)
TGF-β2, P61812 [3] = target: T1, TGF-β2, P61812; experiment: indirect ELISA; […] diluted 1:243
TGF-β2, P61812 [4] = target: T1, TGF-β2, P61812; experiment: indirect ELISA, TGF-β2 coated
TGF-β2, P61812 [5] = target: T1, TGF-β2, P61812; experiment: indirect ELISA; […] diluted 1:81
TGF-β2, P61812 [6] = target: T1, TGF-β2, P61812; experiment: indirect ELISA; […]
TGF-β2, P61812 [7] = target: T1, TGF-β2, P61812; experiment: indirect ELISA; […] diluted 1:27
TGF-β2, P61812 [8] = target: T1, TGF-β2, P61812; experiment: indirect ELISA; […] diluted 1:729
TGF-β2, P61812 [9] = target: T1, TGF-β2, P61812; experiment: indirect ELISA; […] diluted 1:3

OD450 (TGF-β2, P61812 [1]): 0.908 OD and 0.925 OD | OD450 (TGF-β2, P61812 [2]): 0.176 OD and 0.16 OD | OD450 (TGF-β2, P61812 [3]): 0.202 OD and 0.158 OD | EC50 (TGF-β2, P61812 [4]): 1.03 nM | OD450 (TGF-β2, P61812 [5]): 0.253 OD and 0.211 OD | OD450 (TGF-β2, P61812 [6]): 1.46 OD and 1.44 OD | OD450 (TGF-β2, P61812 [7]): 0.432 OD and 0.462 OD | OD450 (TGF-β2, P61812 [8]): 0.184 OD and 0.152 OD | OD450 (TGF-β2, P61812 [9]): 1.34 OD and 1.32 OD
B1: TGF-βRII-mFc, P37173 24-159 (Fc fusion, UniProt P37173 24-159, looked up, not shown: a dimerising Fc or GST)
chain: IPPHVQKSVNNDMIVTDNNGAVKFPQLCKFCDVRFSTCDNQKSCMSNCSITSICEKPQEVCVAVWRKNDENITLETVCHDPKLPYHDFILEDAASPKCIMKEKKKPGETFFMCSCSSDECNDNIIFSEEYNTSNPD
